The source of these data is US20230093399A1, “METHODS FOR GENERATING PLURIPOTENT STEM CELL-DERIVED BROWN FAT CELLS” (AgeX Therapeutics, Inc., priority 2013, published 2023).

The subject of one experiment is NP110SM cells. Kind of experiment: Differentiation of clonal embryonic progenitor line NP110SM in HyStem beads, Illumina microarray gene expression. Type of experiment: cell-based, human. How it is done:
Differentiation medium is high glucose DMEM (CellGro Cat. No. 15-013-CV) with Pyruvate, 1 mM (Gibco Cat. 11360), Pen:Strep 100U/ml:100 ug/ml (Gibco Cat. No. 504284), Glutamax 2 mM (Gibco Cat. No. 35050), Dexamethasone 0.1 uM (Sigma, St. Louis, Mo., Cat. No. D1756-100), L-Proline 0.35 mM (Sigma Cat. No. D49752), 2-phospho-L-Ascorbic Acid 0.17 mM (Sigma, Cat. No. 49792, Fluka), and ITS Premix (BD, Franklin Lakes, N.J., sterile Cat. No. 47743-628) with a final concentration 6.25 ug/ml insulin, 6.25 ug/ml transferrin, 6.25 ng/ml selenious acid, serum albumin 1.25 mg/ml, 5.35 ug/ml linoleic acid. In various differentiation conditions, the Differentiation medium is supplemented with various growth factors or other differentiation factors as described herein.
HyStem-C (BioTime, Inc. Alameda, Calif.) is a matrix composed of thiol-modified gelatin and thiolated hyaluronan crosslinked in vivo or in vitro with (polyethylene glycol diacrylate (PEGDA). We observed that clonal human embryonic progenitor cell lines such as those described in the present invention, could be efficiently differentiated in high-density cultures of said crosslinked collagen and hyaluronate in the following manner. HyStem-C® (BioTime, CA, USA) is reconstituted following the manufacturer's instructions. Briefly, the HyStem component (10 mg of thiol-modified hyaluronan) is dissolved in 1.0 ml of degassed deionized water for approximately 20 min to prepare a 1% w/v solution. The Gelin-S® component (10 mg of thiol-modified gelatin (BioTime)) is dissolved in 1.0 ml of degassed deionized water to prepare a 1% w/v solution, and polyethylene glycol diacrylate (10 mg of PEGDA) is dissolved in 0.5 ml of degassed deionized water to prepare a 2% w/v solution. Then, HyStem (1 ml, 1% w/v) is mixed with Gelin-S (1 ml, 1% w/v) immediately before use. Pelleted cells are resuspended in the recently prepared HyStem:Gelin-S (1:1 v/v) mix described above. Upon the addition of the PEGDA cross-linker, the cell suspension, at a final concentration of 2.0×10^7 cells/ml is aliquoted (25 μl/aliquot) into six-well plates (Corning® 3516; VWR, PA, USA) after partial gelation. Following complete gelation (20 min), Differentiation Medium is added to each well. Plates were then placed in a humidified incubator at 37° C. with ambient O2 and 10% CO2, and the cells were fed three-times weekly. At the desired time point, hydrogel constructs were either fixed and processed for immunohistochemical analysis or lysed using RLT (Qiagen, CA, USA) with 1% beta-mercaptoethanol for total RNA to analyze transcript expression using quantitative real-time PCR (qRT-PCR) and/or whole-genome microarray.
Total RNA was extracted directly from cells growing in 6-well plates or 10 cm tissue culture dishes using Qiagen RNeasy mini kits according to the manufacturer's instructions. RNA concentrations were measured using a Beckman DU530 or Nanodrop spectrophotometer and RNA quality was determined by denaturing agarose gel electrophoresis or using an Agilent 2100 bioanalyzer. Whole-genome expression analysis was carried out using Illumina Human Ref-8v3 or Human HT-12 v4 BeadArrays, and RNA levels for certain genes were confirmed by qRT-PCR. For the Illumina BeadArrays, total RNA was linearly amplified and biotin-labeled using Illumina TotalPrep kits (Life Technologies, Temecula, Calif., USA), and cRNA was quality-controlled using an Agilent 2100 Bioanalyzer. The cRNA was hybridized to Illumina BeadChips, processed, and read using a BeadStation array reader according to the manufacturer's instructions (Illumina, San Diego, Calif., USA). Values of less than 120 relative fluorescence units (RFUs) were considered as nonspecific background signal.
The line NP110SM was then exposed to differentiation in the BAT cell differentiation protocols described herein. […]

The subject of another experiment is cell line E163. Kind of experiment: Differentiation of cell line E163 in HyStem, gene expression. The following applies: E163 passage 12; 21 days in HyStem with 10 ng/mL BMP4. Type of experiment: cell-based, human. How it is done: HyStem-C (BioTime, Inc. Alameda, Calif.) (BioTime, Alameda, Calif., USA) was reconstituted following the manufacturer's instructions. Briefly, the HyStem component (thiol modified hyaluronan, 10 mg) was dissolved in 1.0 ml degassed deionized water for about 20 minutes to prepare a 1% w/v solution. The Gelin-S component (thiol modified gelatin, 10 mg) was dissolved in 1 ml degassed deionized water to prepare a 1% w/v solution, and PEGDA (PEG diacrylate, 10 mg) was dissolved in 0.5 ml degassed deionized water to prepare a 2% w/v solution. HyStem (1 ml, 1% w/v) was mixed with Gelin-S (1 ml, 1% w/v) immediately before use. Pelleted cells were resuspended in recently prepared HyStem:Gelin-S (1:1 v/v) mix described above. Upon the addition of crosslinker PEGDA, the cell suspension, at a final concentration of 2.0×10^7 cells/ml, was aliquoted at 25 μl aliquot four to five times into each well of 6 well plates (Corning 3516) after partial gelation to form attached beads. Following complete gelation (20 minutes), chondrogenic medium was added to each well (i.e about 4 ml/each well of a 6 well plate). […]

Where [1] appears, read: NP110SM, 14 days HyStem beads, 50 ng/ml BMP4, FIG. 15 sample 6.

B1: BMP4: Bone Morphogenetic Protein 4, TGF-beta superfamily member (protein, UniProt P12644 293-408, looked up)
Bone morphogenetic protein 4: SPKHHSQRARKKNKNCRRHSLYVDFSDVGWNDWIVAPPGYQAFYCHGDCPFPLADHLNSTNHAIVQTLVNSVNSSIPKACCVPTELSAISMLYLDEYDKVVLKNYQEMVVEGCGCR
For the molecule B1, the “viability as measured by RNA yields and levels of the BAT markers” value in the experiment with NP110SM cells (NP110SM, 50 ng/ml of BMP4, 5 μm rosiglitazone, embedded in HyStem beads, 14-21 days) was “highest viability”. In the experiment with NP110SM cells (setting [1]), the ADIPOQ expression entry is “markedly up-regulating”, the C19ORF80 expression result is listed as “markedly up-regulating” and the UCP1 expression result is “low or undetectable level”. Besides, in the experiment with NP110SM cells (NP110SM, HyStem beads supplemented with 10 ng/ml BMP4, FIG. 2), the “expression of C19ORF80 transcript” value is reported as “highest expression”. Also, in the experiment on NP110SM cells (addition of 50 ng/ml BMP4 to 5.0 μM rosiglitazone), the “viability of differentiating NP110SM cells as evidenced by RNA yields” value is “appeared to improve the viability”. Further, the “adipocyte markers FABP4 and CD36 and candidate BAT cell progenitor markers such as C19orf80” value in the experiment on cell line E163 is given as “relatively high levels”.
